Measured values reported in patent US20140227287A1 (Astellas, published 2014).
Changes are numbered by the printed parent chain. In names and notes the source's numbering stands.

How the values were obtained:
[1] = target: T1, mouse βNGF (R&D Systems, Inc.) (mouse, UniProt P01139 122-241); experiment: cell-based or functional assay
[2] = target: T2, human βNGF (R&D Systems, Inc.) (human, UniProt P01138 122-241); experiment: cell-based or functional assay
[3] = target: T2, human βNGF (R&D Systems, Inc.); experiment: Fab fragments evaluated by the tests of Examples 3, 6 and 7
Procedure: (§1) Inhibitory activity was measured by the following method. The human trkA (R&D Systems, Inc.) was added to a white Maxisorp 384 plate (Nunc) at 60 ng/well and immobilized by being incubated overnight at 4° C. The next day, the plate was washed once with the TBST wash solution, a blocking agent (TBST containing 20% Blocking One (Nacalai Tesque, Inc.)) was then added thereto, and the plate was left to stand at room temperature for an hour. Subsequently, a mixture obtained by mixing the biotin-labeled human βNGF (0.2 μg/ml) prepared as above with the antibody prepared in Example 2 was added to the trkA-immobilized plate having undergone blocking. […] After an hour of incubation at room temperature, the plate was washed three times with the TBST wash solution and then supplemented with APU4 (BioFx) which is a reagent detecting chemiluminescence, and the amount of chemiluminescence was measured by an EnVision counter (PerkinElmer Co., Ltd.).
(§2) The inhibitory activity was measured by the following method. […] By operating the FLIPR, a mixed solution of the antibody obtained in Example 2 and βNGF was added to the plate at 50 μl/well (final NGF concentration of 100 ng/ml), and the change in intracellular Ca²⁺ concentration was measured.

[4] = target: T1, mouse βNGF (R&D Systems, Inc.); experiment: method of Example 3 with biotin-labeled mouse βNGF (Example 4)
[5] = target: T2, human βNGF (R&D Systems, Inc.); experiment: NGF-trkA binding inhibition ELISA and cell assays (Examples 3, 6, 7)
Procedure: as §1, §2

[6] = target: T2, human βNGF (R&D Systems, Inc.); experiment: competition ELISA: inhibition of biotin-labeled human βNGF binding to immobilized human trkA (Example 3)
[7] = target: T2, human βNGF (R&D Systems, Inc.); experiment: isothermal titration calorimetry, human βNGF titrated into antibody in PBS, single site binding model

B1: PEGylated 1-15(N52D)-Fab′ (Fab, V domains shown)
VH: QVQLQQWGAGLLKPSETLSLTCAVYGGSFSGYYWSWVRQPPGKGLEWIGEIDHSGSTNNNPSLKSRVTISVGTSKNQFSLKLSSVTAADTAVYYCSRDGGPESGMGAFDIWGQGTMVTVSS
VL: not shown
modifications: 40 kDa PEG (maleimide, SUNBRIGHT GL2-400MA) on Cys of the carboxyl terminal (C226 based on EU index; Cys at position 230 of SEQ ID NO:10)
IC50, inhibition of NGF-induced intracellular Ca2+ increase (method of Example 6) [1]: 0.069 µg/mL
neutralizing activity relative to tanezumab (method of Example 6) [1]: ~3.3 times

B2: 1-15(N52D-A)-Fab′-5kPEG (Fab, V domains shown)
VH: B1 VH
VL: not shown
modifications: 5 kDa PEG conjugated by a procedure similar to Example 13 (hinge Cys)
IC50, inhibition of NGF-induced intracellular Ca2+ increase (method of Example 6, final NGF concentration 50 ng/ml) [2]: 0.03 µg/mL

B3: 1-15(N52D-A)-Fab′-10kPEG (Fab, V domains shown)
VH: B1 VH
VL: not shown
modifications: 10 kDa PEG conjugated by a procedure similar to Example 13 (hinge Cys)
IC50, inhibition of NGF-induced intracellular Ca2+ increase (method of Example 6, final NGF concentration 50 ng/ml) [2]: 0.028 µg/mL

B4: Fab fragment of antibody 1-15 (papain digest) (Fab, V domains shown)
VH: B1 VH with D52N
VL: not shown
notes: also called monovalent antibody fragment of 1-15
binding result [3]: binds

B5: antibody 1-15 (chimeric antibody) (antibody, V domains shown)
VH: B1 VH with D52N
VL: not shown
notes: Heavy chain variable region has an N-glycosylation motif at N52 (Kabat)
binding result [4]: binds
binding result [5]: binds

B6: tanezumab (antibody, V domains shown)
VH: QVQLQESGPGLVKPSETLSLTCTVSGFSLIGYDLNWIRQPPGKGLEWIGIIWGDGTTDYNSAVKSRVTISKDTSKNQFSLKLSSVTAADTAVYYCARGGYWYATSYYFDYWGQGTLVTVSS
VL: DIQMTQSPSSLSASVGDRVTITCRASQSISNNLNWYQQKPGKAPKLLIYYTSRFHSGVPSRFSGSGSGTDFTFTISSLQPEDIATYYCQQEHTLPYTFGQGTKLEIKR
IC50, inhibition of NGF-induced intracellular Ca2+ increase (method of Example 6) [2]: 0.17 µg/mL
IC50, inhibition of NGF-induced intracellular Ca2+ increase (method of Example 6) [1]: 0.23 µg/mL
IC50 [6]: 0.41 µg/mL
-TΔS [7]: -5.73 kcal/mol
Kd [7]: 20.4 nM
ΔG [7]: -10.5 kcal/mol
ΔH [7]: -4.76 kcal/mol
